B1: Gamma-crystallin S (Homo sapiens), P22914 (parent)
chain: MSKTGTKITFYEDKNFQGRRYDCDCDCADFHTYLSRCNSIKVEGGTWAVYERPNFAGYMYILPQGEYPEYQRWMGLNDRLSSCRAVHLPSGGQYKIQIFEKGDFSGQMYETTEDCPSIMEQFHMREIHSCKVLEGVWIFYELPNYRGRQYLLDKKEYRKPIDWGAASPAVQSFRRIVE
partner: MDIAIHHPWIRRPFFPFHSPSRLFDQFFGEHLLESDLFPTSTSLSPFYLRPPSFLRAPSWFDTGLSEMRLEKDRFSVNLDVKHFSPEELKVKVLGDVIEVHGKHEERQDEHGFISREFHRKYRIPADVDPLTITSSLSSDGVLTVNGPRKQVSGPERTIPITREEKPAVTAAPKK

Variants of: B1
Settings: with cryab_human CRYAB

| Variant | effect of a mutation on the interaction |
| --- | --- |
| G18V | increasing interaction strength |
